From patent US20140120555A1 (PIERRE FABRE MEDICAMENT, published 2014)
Substitutions are numbered along the chain they refer to. Names may count otherwise.

Tests used:
[1] = target: T1, Recombinant human FcγRIIIA variant V [CD16a], Gln17-Gln208 with C-terminal 6-His tag (human, UniProt P08637 17-208); assay: SPR (Biacore X): h-FcγRIIIA injected over c515H7 Mab immobilized on a CM4 sensorchip; Langmuir model
T1 construct: range 17-208; 'variant V' is given without a position, so no substitution is written; also called h-FcγRIIIA
T1 sequence (P08637 other isoform, or with tags, fused parts or gaps mutant limits assumed, form in doubt): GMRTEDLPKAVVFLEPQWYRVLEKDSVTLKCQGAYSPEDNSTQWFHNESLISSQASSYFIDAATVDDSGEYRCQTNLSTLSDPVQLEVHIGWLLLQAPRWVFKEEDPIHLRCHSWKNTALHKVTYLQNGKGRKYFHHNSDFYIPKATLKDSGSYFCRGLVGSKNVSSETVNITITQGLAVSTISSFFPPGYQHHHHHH
Experimental: (§1) 2017 RU of c515H7 Mab were immobilized using the amine coupling kit chemistry on the second flowcell (FC2) of a CM4 sensorchip. The first flowcell (FC1) activated by NHS and EDC mixture and des-activated by ethanolamine served as the reference surface to check and subtract the non specific interaction between the analyte (Fc gamma receptors) and the sensorchip matrix.
(§2) The kinetic experiments were carried out at 25° Celsius at a flow rate of 30 μl/min. The HBS-EP buffer was used either as the running buffer or for the preparation of analyte solutions. The analyte solutions were injected during 90 seconds (association phase) with a 90 seconds delay (dissociation phase). An injection of running buffer as analyte was used as a double reference. All the sensorgrams were corrected by this double reference sensorgram.
(§3) After each injection of the analyte, the sensorchip was regenerated by injection of 20 mM NaOH, 75 mM NaCl solution.

[2] = target: T2, Recombinant mouse FcγRIII [CD16], Ala31-Thr215 with C-terminal 10-His tag (mouse, UniProt P08508 31-215); assay: SPR (Biacore X), Mab on CM4 chip, m-FcγRIII as analyte, Langmuïr model
T2 construct: Soluble form bought from R&D Systems; also called m-FcγRIII
T2 sequence: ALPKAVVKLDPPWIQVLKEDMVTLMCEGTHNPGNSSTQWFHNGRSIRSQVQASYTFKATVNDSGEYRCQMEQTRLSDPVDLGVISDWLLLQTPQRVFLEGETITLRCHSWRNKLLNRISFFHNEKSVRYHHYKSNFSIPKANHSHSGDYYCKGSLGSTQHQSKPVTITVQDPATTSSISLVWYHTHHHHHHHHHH
Experimental: as §1, §2, §3

[3] = target: T2, Recombinant mouse FcγRIII [CD16], …; assay: SPR (Biacore X): m-FcγRIII injected over c515H7 Mab immobilized on a CM4 sensorchip; Langmuir model
Experimental: as §1, §2, §3

[4] = target: T3, Recombinant human FcγRI [CD64], Gln16-Pro288 with C-terminal 6-His tag (human, UniProt P12314 16-288); assay: SPR (Biacore X): h-FcγRI injected over hz515H7VH1D76NVL2 Mab immobilized on a CM4 sensorchip; heterogeneous ligand model, minor component (1%)
T3 construct: range 16-288; Soluble form bought from R&D Systems; also called h-FcγRI
T3 sequence (P12314 other isoform, or with tags, fused parts or gaps limits assumed): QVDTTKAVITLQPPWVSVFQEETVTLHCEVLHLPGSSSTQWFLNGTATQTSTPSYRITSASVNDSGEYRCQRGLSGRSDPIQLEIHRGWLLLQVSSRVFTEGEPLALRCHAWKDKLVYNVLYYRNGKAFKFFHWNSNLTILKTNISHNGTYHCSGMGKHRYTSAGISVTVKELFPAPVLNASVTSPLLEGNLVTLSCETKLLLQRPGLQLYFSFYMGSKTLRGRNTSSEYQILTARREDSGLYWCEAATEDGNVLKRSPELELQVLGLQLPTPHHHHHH
Experimental: (§4) The experiments were carried out using a Biacore X device. The soluble forms of the four Fc […]gamma receptors used in this study were purchased from R&D Systems: […]

[5] = target: T3, Recombinant human FcγRI [CD64], …; assay: SPR (Biacore X): h-FcγRI injected over hz515H7VH1D76NVL2 Mab immobilized on a CM4 sensorchip; Langmuir model
Experimental: as §4

[6] = target: T1, Recombinant human FcγRIIIA variant V …; assay: SPR (Biacore X): h-FcγRIIIA injected over hz515H7VH1D76NVL2 Mab immobilized on a CM4 sensorchip; Langmuir model
Experimental: as §1, with “1964” for “2017”, “hz515H7VH1D76NVL2” for “c515H7”
as §2
After each injection of the analyte, the sensorchip was regenerated by injection of either 20 mM NaOH solution after h-FcγRI and m-FcγRIII or 10 mM NaOH after h-FcγRIIIA and m-FcγRI.

[7] = target: T1, Recombinant human FcγRIIIA variant V …; assay: SPR (Biacore X): h-FcγRIIIA injected over hz515H7VH1D76NVL2 Mab immobilized on a CM4 sensorchip; heterogeneous ligand model, major component (79%)
Experimental: as §1, with “1964” for “2017”, “hz515H7VH1D76NVL2” for “c515H7”
as §2
Sensorgrams obtained with h-FcγRIIIA [FIG. 16] were clearly not fitted by the Langmuïr model (Chi2/Rmax>20%). […] According to this model, the hz515H7VH1D76NVL2 Mab Fc domain may be regarded as a mixture of two components. […] According to the literature, the heterogeneity observed with h-FcγRIIIA was probably linked to the glycosylation heterogeneity on the Mab Fc domain.

[8] = target: T2, Recombinant mouse FcγRIII [CD16], …; assay: SPR (Biacore X): m-FcγRIII injected over hz515H7VH1D76NVL2 Mab immobilized on a CM4 sensorchip; heterogeneous ligand model, major component (66%)

B1: chimeric antibody c515H7 (antibody, human IgG1, kappa)
heavy: not shown
light: DIVMSQSPSSLAVSAGEKVTMSCKSSQSLFNSRTRKNYLAWYQQKPGQSPKLLIYWASARDSGVPARFTGSGSETYFTLTISRVQAEDLAVYYCMQSFNLRTFGGGTKLEIKRTVAAPSVFIFPPSDEQLKSGTASVVCLLNNFYPREAKVQWKVDNALQSGNSQESVTEQDSKDSTYSLSSTLTLSKADYEKHKVYACEVTHQGLSSPVTKSFNRGEC
notes: Human IgG1/kappa constant domains; also called c515H7 Mab; chimeric 515H7
Kd [1]: 63.8 nM
koff [1]: 0.0263 s⁻¹
kon [1]: 412000 M⁻¹ s⁻¹
Kd [2]: ~20 nM
Kd [3]: 20.9 nM
koff [3]: 0.00442 s⁻¹
kon [3]: 211000 M⁻¹ s⁻¹

B2: humanized antibody Hz515H7 VH1 D76N VL2 (antibody, human IgG1, kappa)
heavy: not shown
light: B1 light with S5T, A15L, K18R, V19A, G105Q, L109V
notes: IgG1/kappa; also called hz515H7VL2; hz515H7-1
Kd [4]: 0.28 nM
koff [4]: 2e-05 s⁻¹
kon [4]: 72000 M⁻¹ s⁻¹
Kd [5]: 0.93 nM
koff [5]: 0.00054 s⁻¹
kon [5]: 578000 M⁻¹ s⁻¹
Kd [6]: 75.2 nM
koff [6]: 0.0351 s⁻¹
kon [6]: 467000 M⁻¹ s⁻¹
Kd [7]: 325 nM
koff [7]: 0.187 s⁻¹
kon [7]: 575000 M⁻¹ s⁻¹
Kd [8]: 0.2 nM
koff [8]: 3.7e-05 s⁻¹
kon [8]: 178000 M⁻¹ s⁻¹
